T1: DnaD-Cd215 (Bacillus subtilis, UniProt P39787 129-215)
T1 sequence: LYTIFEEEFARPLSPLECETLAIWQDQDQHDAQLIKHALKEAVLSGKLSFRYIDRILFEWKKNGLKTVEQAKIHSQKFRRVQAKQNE

T2: DnaD-Cd (DnaD-Cd232) (Bacillus subtilis, UniProt P39787 129-232)
T2 sequence: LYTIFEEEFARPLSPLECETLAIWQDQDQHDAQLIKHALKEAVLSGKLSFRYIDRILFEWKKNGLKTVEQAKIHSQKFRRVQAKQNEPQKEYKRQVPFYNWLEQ

T3: DnaD-Cd206 (Bacillus subtilis, UniProt P39787 129-206)
T3 sequence: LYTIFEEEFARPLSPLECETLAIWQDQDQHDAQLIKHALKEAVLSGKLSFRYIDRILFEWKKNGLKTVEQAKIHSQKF

T4: DnaD-Cd196 (Bacillus subtilis, UniProt P39787 129-196)
T4 sequence: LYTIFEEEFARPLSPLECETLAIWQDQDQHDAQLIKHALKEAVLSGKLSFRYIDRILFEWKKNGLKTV


Assays:
DnaD-Cd215 = biological target: T1, DnaD-Cd215; experiment: NMR
DnaD-Cd (DnaD-Cd232) = biological target: T2, DnaD-Cd (DnaD-Cd232); experiment: NMR
DnaD-Cd206 = biological target: T3, DnaD-Cd206; experiment: NMR
DnaD-Cd196 [1] = biological target: T4, DnaD-Cd196; experiment: NMR
DnaD-Cd196 [2] = biological target: T4, DnaD-Cd196; experiment: EMSA

Binder	binding result (DnaD-Cd215)	binding result (DnaD-Cd (DnaD-Cd232))	binding result (DnaD-Cd206)	binding result (DnaD-Cd196 [1])	binding result (DnaD-Cd196 [2])
GTTATTGCTC (ssDNA) [10-mer ssDNA]	binds	binds	no binding	no binding	–
CTCAGTTTCCGCGCGATTGACCGGATT (ssDNA) [Y180AF ss probe]	–	–	–	–	no binding
